Laboratory results taken from paper PMC7393995.

Target: CD162 (P-selectin glycoprotein ligand-1), mouse, on MLL-AF9 AML blasts (mouse (endogenous in murine MLL-AF9 AML blasts)) (UniProt Q62170)
Assay: flow cytometry on cells; E-selectin–IgM supernatant precomplexed with AF647 anti-human IgM F(ab)2, added to KIT+-enriched BM cells from leukemic mice (WT or Selplg-/- MLL-AF9 AML), 30 min on ice; gated on GFP+ KIT+ blasts; control: empty-vector IgM

Sequence of UniProt Q62170 (Q62170 42-397): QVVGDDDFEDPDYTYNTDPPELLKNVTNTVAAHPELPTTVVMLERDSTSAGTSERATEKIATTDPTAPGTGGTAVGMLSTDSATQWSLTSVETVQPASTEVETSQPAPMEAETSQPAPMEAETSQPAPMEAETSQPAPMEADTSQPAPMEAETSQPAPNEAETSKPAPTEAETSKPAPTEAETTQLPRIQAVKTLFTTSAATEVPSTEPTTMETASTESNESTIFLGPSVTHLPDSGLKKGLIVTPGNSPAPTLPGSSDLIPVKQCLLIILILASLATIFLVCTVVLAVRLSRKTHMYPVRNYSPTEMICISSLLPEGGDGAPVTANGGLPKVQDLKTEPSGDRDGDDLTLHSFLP

Substance “recombinant E-selectin–human-IgM fusion protein (from UniProt P16581 22-610)” has a percent of gated AML blasts that bound E-selectin–IgM of 65%.
